Data on one molecule can be found in paper PMC12120766, “Paclitaxel/Luteolin Coloaded Dual‐Functional Liposomes for Esophageal Cancer Therapy”.

The target in data set [1] is T1, CTNNA1 (catenin alpha 1) (UniProt P35221 2-906). Nature of the data set: MST; MST: 50 nM labeled CTNNA1 in 10 mM PBS pH 7.4, EA2 0.00153-50 uM in 10 mM PBST (0.05% Tween-20) pH 7.4; temperature not stated. The following applies: tags: RED-NHS dye label; predicted mFold secondary structure.
In data set [2] the target is T1, CTNNA1 (catenin alpha 1). Nature of the data set: MST; no antibody (control of the antibody competition); MST: 50 nM labeled CTNNA1 in 10 mM PBS pH 7.4, EA2 0.00153-50 uM in 10 mM PBST (0.05% Tween-20) pH 7.4; temperature not stated. The settings on record: tags: RED-NHS dye label; predicted mFold secondary structure.

T1 sequence (P35221 2-906): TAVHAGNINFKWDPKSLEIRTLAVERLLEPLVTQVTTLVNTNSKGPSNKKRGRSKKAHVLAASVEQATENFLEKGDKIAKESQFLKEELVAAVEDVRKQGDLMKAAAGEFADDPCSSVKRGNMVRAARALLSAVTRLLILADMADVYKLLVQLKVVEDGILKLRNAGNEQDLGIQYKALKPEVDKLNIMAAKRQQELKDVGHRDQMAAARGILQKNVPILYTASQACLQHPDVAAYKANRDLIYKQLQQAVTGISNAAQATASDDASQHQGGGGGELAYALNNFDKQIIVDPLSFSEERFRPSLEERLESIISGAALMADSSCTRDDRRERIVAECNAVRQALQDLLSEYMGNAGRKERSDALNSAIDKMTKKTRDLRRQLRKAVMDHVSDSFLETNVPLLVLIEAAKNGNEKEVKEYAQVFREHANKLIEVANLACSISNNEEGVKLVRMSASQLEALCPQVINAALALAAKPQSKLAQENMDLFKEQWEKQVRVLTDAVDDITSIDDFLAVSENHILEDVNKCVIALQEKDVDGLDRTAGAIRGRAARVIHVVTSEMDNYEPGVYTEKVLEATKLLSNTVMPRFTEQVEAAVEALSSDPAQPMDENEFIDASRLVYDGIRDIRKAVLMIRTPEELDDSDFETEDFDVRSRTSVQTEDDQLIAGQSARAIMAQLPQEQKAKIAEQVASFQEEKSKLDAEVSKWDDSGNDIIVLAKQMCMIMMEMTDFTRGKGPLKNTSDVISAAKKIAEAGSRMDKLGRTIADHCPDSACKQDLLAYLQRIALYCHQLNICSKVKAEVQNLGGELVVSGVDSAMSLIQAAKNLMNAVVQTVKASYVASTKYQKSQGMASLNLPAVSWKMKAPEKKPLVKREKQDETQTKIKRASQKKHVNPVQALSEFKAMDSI

B1: EA2 (ssDNA)
DNA: AGCCTAAGCCTGTCCAGGAATCGTGCAGCCATAGCCTAAGCCTGTCCAGGAATCGATGGCTTAGTGGCACGATTAGGTC
One may read the Kd as the equilibrium constant for the complex coming apart. In the case of B1, the results for the Kd in the data set with CTNNA1 (catenin alpha 1) [1] and with CTNNA1 (catenin alpha 1) [2] were 2070 ± 600 nM and 2300 ± 600 nM, respectively.
